The results in this text go back to PMC8219681, “Inhibition of MRN activity by a telomere protein motif” (Nature Communications, 2021).

The target in experiment [1] is T1, Rad50 (S. cerevisiae, FLAG-tagged at the C terminus) (S. cerevisiae, UniProt P12753 1-1312).
T1 construct: Rad50, Saccharomyces cerevisiae
T1 sequence (looked up): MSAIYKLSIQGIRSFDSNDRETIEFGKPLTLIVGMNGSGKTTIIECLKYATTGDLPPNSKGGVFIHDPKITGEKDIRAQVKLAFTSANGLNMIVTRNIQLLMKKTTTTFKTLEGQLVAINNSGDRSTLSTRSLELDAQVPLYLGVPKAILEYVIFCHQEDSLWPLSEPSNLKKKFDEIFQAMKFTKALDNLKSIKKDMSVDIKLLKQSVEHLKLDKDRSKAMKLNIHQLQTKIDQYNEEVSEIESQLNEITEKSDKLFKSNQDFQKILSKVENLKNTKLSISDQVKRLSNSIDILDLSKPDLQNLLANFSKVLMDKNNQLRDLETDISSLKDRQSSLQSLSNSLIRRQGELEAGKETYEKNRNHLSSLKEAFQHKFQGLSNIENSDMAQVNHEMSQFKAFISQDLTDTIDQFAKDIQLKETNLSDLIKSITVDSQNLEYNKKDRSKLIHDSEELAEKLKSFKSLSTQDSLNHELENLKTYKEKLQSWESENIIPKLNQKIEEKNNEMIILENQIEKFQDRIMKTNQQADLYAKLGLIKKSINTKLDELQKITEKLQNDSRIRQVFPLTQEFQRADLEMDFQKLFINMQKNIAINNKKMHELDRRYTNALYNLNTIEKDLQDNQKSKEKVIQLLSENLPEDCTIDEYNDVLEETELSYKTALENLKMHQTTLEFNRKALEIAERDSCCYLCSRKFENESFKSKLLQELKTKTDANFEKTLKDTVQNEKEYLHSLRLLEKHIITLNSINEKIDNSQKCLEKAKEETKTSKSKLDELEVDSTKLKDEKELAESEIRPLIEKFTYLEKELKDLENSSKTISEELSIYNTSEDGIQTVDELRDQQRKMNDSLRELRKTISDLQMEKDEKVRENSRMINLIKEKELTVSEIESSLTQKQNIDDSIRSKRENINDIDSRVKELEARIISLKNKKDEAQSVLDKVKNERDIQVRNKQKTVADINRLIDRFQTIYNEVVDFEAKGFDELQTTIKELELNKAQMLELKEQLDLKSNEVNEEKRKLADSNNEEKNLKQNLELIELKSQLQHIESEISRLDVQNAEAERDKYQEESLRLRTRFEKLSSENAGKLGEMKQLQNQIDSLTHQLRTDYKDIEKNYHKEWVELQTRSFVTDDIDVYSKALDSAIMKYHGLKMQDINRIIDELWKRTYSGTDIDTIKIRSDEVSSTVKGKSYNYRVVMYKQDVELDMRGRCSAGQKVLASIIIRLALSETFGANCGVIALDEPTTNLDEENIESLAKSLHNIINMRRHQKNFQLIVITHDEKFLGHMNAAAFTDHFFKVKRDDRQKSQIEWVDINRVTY
The experiment is described as follows: pull-down; MBP-Rif2 or MBP-Rif2-min (~5 ug, from Sf9 lysate) immobilised on amylose resin and washed; 1 ug Mre11, 500 ng Rad50 or 1 ug Xrs2 added for 1 h in 50 mM Tris-HCl pH 7.5, 200 mM NaCl, 0.2% NP40, 2 mM EDTA; eluted with 20 mM maltose; Western blot. The settings on record: both partners purified. In general terms: Immunoblotting shows a protein as a band on a membrane.

Experiment [2] concerns the target T2, Mre11 (S. cerevisiae, his-tagged at the C terminus) (S. cerevisiae, UniProt P32829 1-692).
T2 construct: Mre11, Saccharomyces cerevisiae; also called Mre11-his; not shown: His tag, C-terminal, kept
T2 sequence (looked up): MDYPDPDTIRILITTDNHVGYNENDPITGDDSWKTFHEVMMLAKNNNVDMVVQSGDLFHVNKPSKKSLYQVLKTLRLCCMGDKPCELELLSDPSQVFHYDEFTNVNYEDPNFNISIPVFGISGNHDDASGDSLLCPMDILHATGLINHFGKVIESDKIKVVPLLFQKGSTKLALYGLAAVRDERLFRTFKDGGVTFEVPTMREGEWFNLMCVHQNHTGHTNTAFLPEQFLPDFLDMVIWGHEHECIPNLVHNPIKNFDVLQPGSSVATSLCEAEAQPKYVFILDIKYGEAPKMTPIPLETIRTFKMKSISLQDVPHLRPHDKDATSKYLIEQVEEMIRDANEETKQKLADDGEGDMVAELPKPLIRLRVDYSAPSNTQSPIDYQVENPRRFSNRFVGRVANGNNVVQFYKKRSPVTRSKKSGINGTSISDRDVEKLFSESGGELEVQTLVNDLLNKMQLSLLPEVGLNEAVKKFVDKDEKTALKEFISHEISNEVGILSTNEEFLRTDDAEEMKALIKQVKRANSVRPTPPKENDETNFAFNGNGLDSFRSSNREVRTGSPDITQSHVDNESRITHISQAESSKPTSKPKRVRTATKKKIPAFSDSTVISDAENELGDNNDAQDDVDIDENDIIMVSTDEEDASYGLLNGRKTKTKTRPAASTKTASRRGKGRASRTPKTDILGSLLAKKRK
Described as above. To be noted: both partners purified.

Changes are numbered by the printed parent chain. Names and notes keep the numbering of the source.

B1: MBP-Rif2 (S. cerevisiae Rif2, wild type) (natural protein, UniProt Q06208 1-395, looked up)
chain: MEHVDSDFAPIRRSKKVVDSDKIVKAISDDLEQKNFTVLRKLNLVPIKKSVSSPKVCKPSPVKERVDHVFYQKFKSMALQELGTNYLSISYVPSLSKFLSKNLRSMKNCIVFFDKVEHIHQYAGIDRAVSETLSLVDINVVIIEMNDYLMKEGIQSSKSKECIESMGQASYSGQLDFEASEKPSNHTSDLMMMVMRKINNDESIDHIVYFKFEQLDKLSTSTIIEPSKLTEFINVLSVLEKSNNIAFKVLIYSNNVSISSLLSTSLKKKLNTKYTVFEMPILTCAQEQEYLKKMIKFTFDSGSKLLQSYNSLVTCQLNNKESNLAIFFEFLKVFPHPFTYLFNAYTEIIVQSRTFDELLDKIRNRLTIKNYPHSAYNFKKNQRLPLKLTRKVHDR
notes: Rif2, Saccharomyces cerevisiae, full length, expressed from the vector pFB-MBP-Rif2-his; MBP was cleaved with PreScission protease only after elution from the resin; N-terminal place of MBP is read from the construct's name MBP-Rif2-his; also called ScRif2; not shown: MBP, N-terminal, kept
On to B1, for which the binding result in experiment [1] and in experiment [2] was “binds” throughout.

B2: MBP-Rif2-min (S. cerevisiae Rif2 F8E P10N) (natural protein, UniProt Q06208 1-395, looked up)
chain: B1 chain with F8E, P10N
notes: Rif2, Saccharomyces cerevisiae, full length, F8E P10N, expressed from the vector pFB-MBP-Rif2-min-his; MBP was cleaved with PreScission protease only after elution from the resin; N-terminal place of MBP is read from the construct's name; also called mutant Rif2; not shown: MBP, N-terminal, kept
With B2, the binding result in experiment [1] and in experiment [2] was “binds” each time.
